First the molecules themselves.
B1: Speckle-type POZ protein (Homo sapiens), O43791 (parent)
chain: MSRVPSPPPPAEMSSGPVAESWCYTQIKVVKFSYMWTINNFSFCREEMGEVIKSSTFSSGANDKLKWCLRVNPKGLDEESKDYLSLYLLLVSCPKSEVRAKFKFSILNAKGEETKAMESQRAYRFVQGKDWGFKKFIRRDFLLDEANGLLPDDKLTLFCEVSVVQDSVNISGQNTMNMVKVPECRLADELGGLWENSRFTDCCLCVAGQEFQAHKAILAARSPVFSAMFEHEMEESKKNRVEINDVEPEVFKEMMCFIYTGKAPNLDKMADDLLAAADKYALERLKVMCEDALCSNLSVENAAEILILADLHSADQLKTQAVDFINYHASDVLETSGWKSMVVSHPHLVAEAYRSLASAQCPFLGPPRKRLKQS
partner: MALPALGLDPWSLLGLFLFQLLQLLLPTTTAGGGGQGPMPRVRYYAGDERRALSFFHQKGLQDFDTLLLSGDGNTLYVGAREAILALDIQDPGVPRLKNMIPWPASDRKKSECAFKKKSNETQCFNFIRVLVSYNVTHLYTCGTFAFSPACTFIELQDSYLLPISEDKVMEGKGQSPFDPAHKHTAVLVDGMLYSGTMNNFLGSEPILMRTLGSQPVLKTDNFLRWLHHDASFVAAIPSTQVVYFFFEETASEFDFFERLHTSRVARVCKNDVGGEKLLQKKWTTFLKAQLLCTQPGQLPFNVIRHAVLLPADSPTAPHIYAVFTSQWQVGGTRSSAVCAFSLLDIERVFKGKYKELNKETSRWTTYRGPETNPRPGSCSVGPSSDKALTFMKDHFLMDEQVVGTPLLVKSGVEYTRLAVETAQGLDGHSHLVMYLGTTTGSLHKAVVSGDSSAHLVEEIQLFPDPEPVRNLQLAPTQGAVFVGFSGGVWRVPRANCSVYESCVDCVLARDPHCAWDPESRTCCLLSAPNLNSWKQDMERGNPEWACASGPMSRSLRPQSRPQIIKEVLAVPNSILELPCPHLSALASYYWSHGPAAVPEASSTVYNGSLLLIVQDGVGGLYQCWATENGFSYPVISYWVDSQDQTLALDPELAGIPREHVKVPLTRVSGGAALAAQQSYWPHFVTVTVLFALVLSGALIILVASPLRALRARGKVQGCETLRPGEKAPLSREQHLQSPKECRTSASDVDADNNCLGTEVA
B2: Speckle-type POZ protein (Homo sapiens), O43791 (parent)
chain: B1 chain
partner: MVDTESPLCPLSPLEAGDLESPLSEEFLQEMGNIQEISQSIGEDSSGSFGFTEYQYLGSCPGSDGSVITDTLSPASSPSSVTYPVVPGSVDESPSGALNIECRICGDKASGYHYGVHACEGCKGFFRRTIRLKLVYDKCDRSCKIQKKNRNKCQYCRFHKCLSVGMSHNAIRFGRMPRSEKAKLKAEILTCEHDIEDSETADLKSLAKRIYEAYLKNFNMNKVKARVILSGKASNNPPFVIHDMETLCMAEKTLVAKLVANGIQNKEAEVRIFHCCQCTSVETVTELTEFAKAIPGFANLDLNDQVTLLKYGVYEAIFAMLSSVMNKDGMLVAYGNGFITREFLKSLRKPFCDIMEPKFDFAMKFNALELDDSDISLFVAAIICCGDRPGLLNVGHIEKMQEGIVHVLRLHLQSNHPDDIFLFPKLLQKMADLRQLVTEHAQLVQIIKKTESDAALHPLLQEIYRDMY
B3: Speckle-type POZ protein (Homo sapiens), O43791 (parent)
chain: B1 chain
partner: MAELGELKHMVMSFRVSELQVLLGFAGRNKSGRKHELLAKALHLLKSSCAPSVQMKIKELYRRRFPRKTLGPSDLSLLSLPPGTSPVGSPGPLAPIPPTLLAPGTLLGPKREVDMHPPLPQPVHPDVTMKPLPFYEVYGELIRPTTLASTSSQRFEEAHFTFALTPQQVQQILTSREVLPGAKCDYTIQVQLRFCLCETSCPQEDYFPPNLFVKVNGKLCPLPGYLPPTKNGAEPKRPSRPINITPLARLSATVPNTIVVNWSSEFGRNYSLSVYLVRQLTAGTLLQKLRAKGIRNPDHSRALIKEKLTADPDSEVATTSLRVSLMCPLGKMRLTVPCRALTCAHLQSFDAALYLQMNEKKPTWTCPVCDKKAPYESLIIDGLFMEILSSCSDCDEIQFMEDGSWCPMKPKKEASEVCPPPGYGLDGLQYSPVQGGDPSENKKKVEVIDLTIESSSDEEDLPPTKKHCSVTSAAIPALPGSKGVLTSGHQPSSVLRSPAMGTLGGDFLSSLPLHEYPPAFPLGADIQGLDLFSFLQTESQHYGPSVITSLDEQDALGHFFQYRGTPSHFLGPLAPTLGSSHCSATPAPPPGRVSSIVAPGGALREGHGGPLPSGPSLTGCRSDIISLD
B4: Speckle-type POZ protein (Homo sapiens), O43791 (parent)
chain: B1 chain
partner: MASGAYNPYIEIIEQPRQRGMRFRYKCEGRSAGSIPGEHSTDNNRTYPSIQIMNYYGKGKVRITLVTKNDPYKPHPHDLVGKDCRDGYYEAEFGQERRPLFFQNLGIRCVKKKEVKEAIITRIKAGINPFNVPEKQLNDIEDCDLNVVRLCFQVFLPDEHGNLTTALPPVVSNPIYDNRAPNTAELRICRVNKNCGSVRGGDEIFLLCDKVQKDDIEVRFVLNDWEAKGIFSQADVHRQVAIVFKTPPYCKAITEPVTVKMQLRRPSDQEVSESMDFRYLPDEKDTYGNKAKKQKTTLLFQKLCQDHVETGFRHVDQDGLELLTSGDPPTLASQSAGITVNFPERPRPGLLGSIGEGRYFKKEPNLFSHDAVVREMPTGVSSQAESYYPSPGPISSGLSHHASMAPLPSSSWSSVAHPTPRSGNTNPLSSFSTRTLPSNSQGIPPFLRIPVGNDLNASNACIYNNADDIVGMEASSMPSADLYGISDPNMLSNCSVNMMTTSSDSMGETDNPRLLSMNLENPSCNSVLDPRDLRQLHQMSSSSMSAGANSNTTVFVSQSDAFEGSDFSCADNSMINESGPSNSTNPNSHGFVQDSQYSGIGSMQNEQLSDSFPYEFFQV
B5: Speckle-type POZ protein (Homo sapiens), O43791 (parent)
chain: B1 chain
partner: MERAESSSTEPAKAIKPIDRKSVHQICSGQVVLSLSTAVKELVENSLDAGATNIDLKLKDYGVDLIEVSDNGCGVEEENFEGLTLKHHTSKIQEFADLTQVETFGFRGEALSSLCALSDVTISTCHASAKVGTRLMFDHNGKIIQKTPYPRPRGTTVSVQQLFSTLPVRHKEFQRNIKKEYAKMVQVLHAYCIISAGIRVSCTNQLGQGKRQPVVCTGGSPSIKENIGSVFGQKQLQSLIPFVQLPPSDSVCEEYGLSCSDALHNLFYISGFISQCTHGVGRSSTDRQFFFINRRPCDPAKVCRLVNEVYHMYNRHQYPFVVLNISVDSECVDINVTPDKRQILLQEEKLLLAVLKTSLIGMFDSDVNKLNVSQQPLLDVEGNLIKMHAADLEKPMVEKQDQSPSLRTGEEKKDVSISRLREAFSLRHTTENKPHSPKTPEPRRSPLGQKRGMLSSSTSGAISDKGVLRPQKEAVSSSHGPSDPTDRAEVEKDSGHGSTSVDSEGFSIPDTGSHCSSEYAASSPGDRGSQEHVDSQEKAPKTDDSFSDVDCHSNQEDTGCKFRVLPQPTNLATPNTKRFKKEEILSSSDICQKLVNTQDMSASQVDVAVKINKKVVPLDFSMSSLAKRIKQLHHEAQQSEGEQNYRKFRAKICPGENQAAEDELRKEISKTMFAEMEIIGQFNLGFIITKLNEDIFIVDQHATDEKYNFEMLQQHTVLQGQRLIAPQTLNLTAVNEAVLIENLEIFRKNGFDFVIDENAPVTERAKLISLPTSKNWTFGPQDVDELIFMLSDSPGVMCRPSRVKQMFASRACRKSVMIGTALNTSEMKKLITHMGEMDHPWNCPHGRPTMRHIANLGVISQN
B6: Speckle-type POZ protein (Homo sapiens), O43791 (parent)
chain: B1 chain
partner: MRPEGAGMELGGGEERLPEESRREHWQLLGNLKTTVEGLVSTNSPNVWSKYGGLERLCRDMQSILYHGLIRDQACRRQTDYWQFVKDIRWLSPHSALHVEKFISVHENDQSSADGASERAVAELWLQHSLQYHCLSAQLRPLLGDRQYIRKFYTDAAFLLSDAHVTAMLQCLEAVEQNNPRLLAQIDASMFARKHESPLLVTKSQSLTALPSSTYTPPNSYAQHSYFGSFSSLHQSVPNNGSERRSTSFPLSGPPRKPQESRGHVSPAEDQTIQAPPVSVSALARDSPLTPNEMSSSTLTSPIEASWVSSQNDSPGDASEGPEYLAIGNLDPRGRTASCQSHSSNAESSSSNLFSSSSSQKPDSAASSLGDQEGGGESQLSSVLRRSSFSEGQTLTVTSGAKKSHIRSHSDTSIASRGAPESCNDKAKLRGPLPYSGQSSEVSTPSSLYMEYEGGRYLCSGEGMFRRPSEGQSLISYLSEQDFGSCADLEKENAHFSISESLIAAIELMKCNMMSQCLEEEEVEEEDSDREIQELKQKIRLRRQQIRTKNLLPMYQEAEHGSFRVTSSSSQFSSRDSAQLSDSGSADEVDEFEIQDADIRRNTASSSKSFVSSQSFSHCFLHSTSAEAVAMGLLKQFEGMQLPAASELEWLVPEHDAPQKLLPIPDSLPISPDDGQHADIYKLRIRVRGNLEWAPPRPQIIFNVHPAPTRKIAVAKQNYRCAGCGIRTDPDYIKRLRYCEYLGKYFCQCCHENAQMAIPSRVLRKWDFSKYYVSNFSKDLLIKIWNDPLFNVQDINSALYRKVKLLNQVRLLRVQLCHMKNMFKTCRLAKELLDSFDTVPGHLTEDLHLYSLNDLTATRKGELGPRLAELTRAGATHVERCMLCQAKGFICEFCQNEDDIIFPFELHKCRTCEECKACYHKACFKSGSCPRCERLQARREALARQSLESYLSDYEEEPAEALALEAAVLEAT

The first experiment covers variants of B1. Particulars: with sem4a_human SEMA4A.
F102C: the “effect of a mutation on the interaction” value is “with no effect”.

The variants in another experiment derive from B1. Particulars: with sem4a_human SEMA4A. The source holds these as a separate data set.
Regarding Y87C, the “effect of a mutation on the interaction” value is recorded as “with no effect”.

In the next experiment the parent is B1. Conditions: with sem4a_human SEMA4A. This is another data set of the same source.
For the variant F133L, the “effect of a mutation on the interaction” value is given as “with no effect”.

Variants of B1 are the subject of the next experiment. Conditions: with sem4a_human SEMA4A. The source holds these as a separate data set.
On to F133V, for which the “effect of a mutation on the interaction” value is “with no effect”.

The variants in a further experiment derive from B2. Conditions: with ppara_human PPARA.
For the variant F102C, the “effect of a mutation on the interaction” value is given as “with no effect”.

Variants of B2 are the subject of the next experiment. Conditions: with ppara_human PPARA. The source holds these as a separate data set.
On to F133V, for which the “effect of a mutation on the interaction” value is given as “with no effect”.

A further experiment covers variants of B2. Particulars: with ppara_human PPARA. This is another data set of the same source.
F133L: the “effect of a mutation on the interaction” value was “with no effect”.

In a further experiment the parent is B2. Conditions: with ppara_human PPARA. This is another data set of the same source.
As to Y87C, the “effect of a mutation on the interaction” value is on record as “with no effect”.

The next experiment covers variants of B3. Conditions: with pias3_human PIAS3, Q9Y6X2.
As for F102C, the “effect of a mutation on the interaction” value is listed as “with no effect”.

In another experiment the parent is B3. Conditions: with pias3_human PIAS3, Q9Y6X2. This is another data set of the same source.
For F133V, the “effect of a mutation on the interaction” value was “with no effect”.

In the next experiment the parent is B3. Conditions: with pias3_human PIAS3, Q9Y6X2. This is another data set of the same source.
Regarding F133L, the “effect of a mutation on the interaction” value is given as “with no effect”.

A further experiment covers variants of B3. Particulars: with pias3_human PIAS3, Q9Y6X2. This is another data set of the same source.
In the case of Y87C, the “effect of a mutation on the interaction” value is given as “with no effect”.

The variants in the next experiment derive from B4. Conditions: with rel_human REL.
Consider Y87C, for which the “effect of a mutation on the interaction” value is “with no effect”.

Variants of B4 are the subject of another experiment. Conditions: with rel_human REL. The source holds these as a separate data set.
For F102C, the “effect of a mutation on the interaction” value was “with no effect”.

The variants in another experiment derive from B4. Conditions: with rel_human REL. This is another data set of the same source.
Take F133V: the “effect of a mutation on the interaction” value is recorded as “with no effect”.

The next experiment covers variants of B4. Particulars: with rel_human REL. This is another data set of the same source.
Regarding F133L, the “effect of a mutation on the interaction” value is on record as “causing an interaction”.

A further experiment covers variants of B4. Conditions: with rel_human REL. The source holds these as a separate data set.
As to F133L, the “effect of a mutation on the interaction” value is recorded as “increasing interaction strength”.

The variants in a further experiment derive from B5. Particulars: with pms2_human PMS2, P54278.
For Y87C, the “effect of a mutation on the interaction” value is given as “with no effect”.

The variants in another experiment derive from B5. Particulars: with pms2_human PMS2, P54278. The source holds these as a separate data set.
Regarding F102C, the “effect of a mutation on the interaction” value is on record as “with no effect”.

Variants of B5 are the subject of a further experiment. Particulars: with pms2_human PMS2, P54278. This is another data set of the same source.
In the case of F133V, the “effect of a mutation on the interaction” value is “with no effect”.

In another experiment the parent is B5. Conditions: with pms2_human PMS2, P54278. The source holds these as a separate data set.
In the case of F133L, the “effect of a mutation on the interaction” value is given as “with no effect”.

Variants of B6 are the subject of another experiment. Particulars: with rubic_human RUBCN.
With F102C, the “effect of a mutation on the interaction” value is given as “with no effect”.

Another experiment covers variants of B6. Particulars: with rubic_human RUBCN. The source holds these as a separate data set.
As for Y87C, the “effect of a mutation on the interaction” value was “with no effect”.

The record behind these values is IntAct's records for PubMed 35512704.
